Earlier results in publication PMC6787260.
Like-named read-outs stand apart in the source and are kept apart here.

Columns and labels:
PDK1 (Homo sapiens) [1] = biological target: PDK1 (Homo sapiens) (UniProt O15530); experiment: time resolved-FRET
PDK1 (Homo sapiens) [2] = biological target: PDK1 (Homo sapiens) (UniProt O15530); experiment: time resolved-FRET; remark: listed apart in the source

- Kd (PDK1 (Homo sapiens) [1]): 11 µM
- Kd (PDK1 (Homo sapiens) [2]): 49 µM
Substance: PDK1 (from UniProt O15530)
